Among the data in patent US20240252637A1 are Co-culture killing assay; decrease of CD19+ cells incubated with EXO-CD19-CAR and Cytotoxicity assay of EXO-CAR-T against tumor cells (Namalwa); CD19+ cells eliminated values, retold here.

The target in the experiment is CD19 on Namalwa cells (UniProt P15391). The experiment in a line: cell-based or functional assay.
UniProt P15391, sequence (P15391 20-556 limits assumed): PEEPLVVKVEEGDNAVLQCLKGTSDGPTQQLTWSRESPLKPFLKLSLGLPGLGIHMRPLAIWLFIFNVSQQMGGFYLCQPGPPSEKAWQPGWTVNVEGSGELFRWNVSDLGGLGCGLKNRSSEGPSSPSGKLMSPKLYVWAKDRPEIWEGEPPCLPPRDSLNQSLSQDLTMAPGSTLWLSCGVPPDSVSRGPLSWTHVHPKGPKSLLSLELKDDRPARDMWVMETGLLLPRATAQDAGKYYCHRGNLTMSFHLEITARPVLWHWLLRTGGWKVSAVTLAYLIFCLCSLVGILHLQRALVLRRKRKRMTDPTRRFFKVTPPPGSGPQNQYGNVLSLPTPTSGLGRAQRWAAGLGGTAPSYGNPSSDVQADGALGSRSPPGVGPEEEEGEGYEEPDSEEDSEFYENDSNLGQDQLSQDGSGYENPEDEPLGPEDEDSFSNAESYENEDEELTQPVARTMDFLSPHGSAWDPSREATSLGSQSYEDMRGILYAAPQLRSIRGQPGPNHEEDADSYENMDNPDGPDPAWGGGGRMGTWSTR

As to “CD19-CAR (third generation anti-CD19 chimeric antigen receptor, from the lenti-EF1-CD19-3rd-CAR-eGFt plasmid, Creative Biolabs) on the surface of exosomes from CAR-T cells”, the Co-culture killing assay; decrease of CD19+ cells incubated with EXO-CD19-CAR is 60% and the Cytotoxicity assay of EXO-CAR-T against tumor cells (Namalwa); CD19+ cells eliminated at 150 µg/mL EXO-CAR-T came to 70%.
